± gives the uncertainty stated by the source.

This passage reports abundance fitness results from the Human Domainome abundance scans (Beltran et al. 2025).

To fix the notation:
B1: Myocardin, residues 363 to 406; numbered along this chain, Q8IZQ8 (parent)
chain: KPGPLPPNLDDLKVSELRQQLRIRGLPVSGTKTALMDRLRPFQD

Variants of B1 are the subject of the data set. As to the kind of experiment: abundance fitness (aPCA) (normalised: wild type 0, dead -1); higher = more abundant; growth selection in yeast, the domain comes from the species named. Particulars: Homo sapiens.
For the variant KPGPLPPNLDDLKVSELRQQLRIRGLPVSGMKTALMDRLRPFQD, the abundance fitness is -0.62 ± 0.22. In the case of KPGPLPPNLDDLKVSELRQQLRIRGLPVSGGKTALMDRLRPFQD, the abundance fitness was -0.214 ± 0.06. To KPGPLPPNLDDLKVSELRQQLRIRGLPVSGRKTALMDRLRPFQD belongs -0.319 ± 0.085. For KPGPLPPNLDDLKVSELRQQLRIRGLPVSGLKTALMDRLRPFQD the value was -0.344 ± 0.092. To KPGPLPPNLDDLKVSELRQQLRIRGLPVSGKKTALMDRLRPFQD belongs -0.217 ± 0.16; to KPGPLPPNLDDLKVSELRQQLRIRGLPVSGCKTALMDRLRPFQD, -0.052 ± 0.24; to KPGPLPPNLDDLKVSELRQQLRIRGLPVSGPKTALMDRLRPFQD, -0.222 ± 0.094. On to KPGPLPPNLDDLKVSELRQQLRIRGLPVSGEKTALMDRLRPFQD, for which the abundance fitness was -0.01 ± 0.11. To KPGPLPPNLDDLKVSELRQQLRIRGLPVSGWKTALMDRLRPFQD belongs -0.994 ± 0.13. To KPGPLPPNLDDLKVSELRQQLRIRGLPVSGHKTALMDRLRPFQD belongs -0.331 ± 0.13; to KPGPLPPNLDDLKVSELRQQLRIRGLPVSGVKTALMDRLRPFQD, -0.189 ± 0.072. To KPGPLPPNLDDLKVSELRQQLRIRGLPVSGDKTALMDRLRPFQD belongs 0.155 ± 0.092; to KPGPLPPNLDDLKVSELRQQLRIRGLPVSGTMTALMDRLRPFQD, -0.696 ± 0.16; to KPGPLPPNLDDLKVSELRQQLRIRGLPVSGTTTALMDRLRPFQD, -0.349 ± 0.083. Consider KPGPLPPNLDDLKVSELRQQLRIRGLPVSGTDTALMDRLRPFQD, for which the abundance fitness was -0.489 ± 0.1.

KPGPLPPNLDDLKVSELRQQLRIRGLPVSGTGTALMDRLRPFQD: the abundance fitness is -0.856 ± 0.092. For KPGPLPPNLDDLKVSELRQQLRIRGLPVSGTATALMDRLRPFQD the value was -0.449 ± 0.068. To KPGPLPPNLDDLKVSELRQQLRIRGLPVSGTWTALMDRLRPFQD belongs -0.759 ± 0.1; to KPGPLPPNLDDLKVSELRQQLRIRGLPVSGTCTALMDRLRPFQD, -0.763 ± 0.16; to KPGPLPPNLDDLKVSELRQQLRIRGLPVSGTRTALMDRLRPFQD, -0.012 ± 0.054. As for KPGPLPPNLDDLKVSELRQQLRIRGLPVSGTITALMDRLRPFQD, the abundance fitness is -0.488 ± 0.26. For KPGPLPPNLDDLKVSELRQQLRIRGLPVSGTSTALMDRLRPFQD the value was -0.905 ± 0.11. In the case of KPGPLPPNLDDLKVSELRQQLRIRGLPVSGTYTALMDRLRPFQD, the abundance fitness is -0.593 ± 0.31. To KPGPLPPNLDDLKVSELRQQLRIRGLPVSGTPTALMDRLRPFQD belongs -0.583 ± 0.071; to KPGPLPPNLDDLKVSELRQQLRIRGLPVSGTETALMDRLRPFQD, -0.286 ± 0.085; to KPGPLPPNLDDLKVSELRQQLRIRGLPVSGTFTALMDRLRPFQD, -0.642 ± 0.15. To KPGPLPPNLDDLKVSELRQQLRIRGLPVSGTLTALMDRLRPFQD belongs -0.784 ± 0.074; to KPGPLPPNLDDLKVSELRQQLRIRGLPVSGTVTALMDRLRPFQD, -0.357 ± 0.09; to KPGPLPPNLDDLKVSELRQQLRIRGLPVSGTQTALMDRLRPFQD, -0.58 ± 0.11. To KPGPLPPNLDDLKVSELRQQLRIRGLPDSGTKTALMDRLRPFQD belongs 0.294 ± 0.18; to KPGPLPPNLDDLKVSELRQQLRIRGLPASGTKTALMDRLRPFQD, -0.002 ± 0.063.

On to KPGPLPPNLDDLKVSELRQQLRIRGLPQSGTKTALMDRLRPFQD, for which the abundance fitness stood at 0.027 ± 0.069. For KPGPLPPNLDDLKVSELRQQLRIRGLPHSGTKTALMDRLRPFQD the value was -0.264 ± 0.14; for KPGPLPPNLDDLKVSELRQQLRIRGLPPSGTKTALMDRLRPFQD, -0.198 ± 0.074. For KPGPLPPNLDDLKVSELRQQLRIRGLPGSGTKTALMDRLRPFQD the value was -0.168 ± 0.062.

For KPGPLPPNLDDLKVSELRQQLRIRGLPRSGTKTALMDRLRPFQD, the abundance fitness was -0.671 ± 0.075. For KPGPLPPNLDDLKVSELRQQLRIRGLPCSGTKTALMDRLRPFQD the value was 0.207 ± 0.094; for KPGPLPPNLDDLKVSELRQQLRIRGLPWSGTKTALMDRLRPFQD, -0.13 ± 0.089. For KPGPLPPNLDDLKVSELRQQLRIRGLPISGTKTALMDRLRPFQD the value was 0.217 ± 0.17; for KPGPLPPNLDDLKVSELRQQLRIRGLPLSGTKTALMDRLRPFQD, -0.07 ± 0.064. To KPGPLPPNLDDLKVSELRQQLRIRGLPKSGTKTALMDRLRPFQD belongs -0.436 ± 0.14; to KPGPLPPNLDDLKVSELRQQLRIRGLPMSGTKTALMDRLRPFQD, 0.017 ± 0.18; to KPGPLPPNLDDLKVSELRQQLRIRGLPTSGTKTALMDRLRPFQD, 0.153 ± 0.088. Regarding KPGPLPPNLDDLKVSELRQQLRIRGLPSSGTKTALMDRLRPFQD, the abundance fitness was found to be 0.123 ± 0.098. For KPGPLPPNLDDLKVSELRQQLRIRGLPESGTKTALMDRLRPFQD the value was 0.082 ± 0.068; for KPGPLPPNLDDLKVSELRQQLRIRGLMVSGTKTALMDRLRPFQD, -0.324 ± 0.13. To KPGPLPPNLDDLKVSELRQQLRIRGLGVSGTKTALMDRLRPFQD belongs -0.41 ± 0.068. To KPGPLPPNLDDLKVSELRQQLRIRGLRVSGTKTALMDRLRPFQD belongs -0.344 ± 0.055. For KPGPLPPNLDDLKVSELRQQLRIRGLVVSGTKTALMDRLRPFQD, the abundance fitness was -0.73 ± 0.12. For KPGPLPPNLDDLKVSELRQQLRIRGLTVSGTKTALMDRLRPFQD the value was -0.39 ± 0.17; for KPGPLPPNLDDLKVSELRQQLRIRGLYVSGTKTALMDRLRPFQD, -0.891 ± 0.13; for KPGPLPPNLDDLKVSELRQQLRIRGLHVSGTKTALMDRLRPFQD, -0.149 ± 0.19. For KPGPLPPNLDDLKVSELRQQLRIRGLSVSGTKTALMDRLRPFQD the value was -0.043 ± 0.076; for KPGPLPPNLDDLKVSELRQQLRIRGLLVSGTKTALMDRLRPFQD, -0.657 ± 0.099.

For the variant KPGPLPPNLDDLKVSELRQQLRIRGLQVSGTKTALMDRLRPFQD, the abundance fitness is -0.05 ± 0.094. To KPGPLPPNLDDLKVSELRQQLRIRGLIVSGTKTALMDRLRPFQD belongs -0.374 ± 0.14; to KPGPLPPNLDDLKVSELRQQLRIRGLEVSGTKTALMDRLRPFQD, -0.245 ± 0.087; to KPGPLPPNLDDLKVSELRQQLRIRGLWVSGTKTALMDRLRPFQD, -0.951 ± 0.15.
